Data set [1] deals with the molecule itself. Nature of the data set: gel filtration (self-association, domain-swapped dimer). Here is the method:
(§1) To confirm that the engineered scaffold was correctly folded, we used gel filtration chromatography to ask whether we could detect any denatured or dimerized STM in its native form. Recombinant STM AU1 migrated close to its predicted size and similarly to wild type SteA (FIG. 3, panel A). When the protein preparations were heated to 75° C. before gel filtration, a proportion of SteA migrated as a dimer. […] The CD spectra of native SteA at 25° C. and 50° C. and native STM AU1 at 25° C. and 50° C.
In general terms: Size exclusion chromatography separates by hydrodynamic size, large species first.

Data set [2] concerns the molecule itself. Nature of the data set: SDS-PAGE after 75° C. or ice (self-association). Here is the method: We wished to ascertain whether we could insert peptides into STM without affecting its stability as a protein. We modelled a peptide aptamer by inserting the six residue “AU1” epitope tag (DTYRYI) (SEQ ID NO: 32) into the engineered loop. We wished to retain the thermostability of SteA but abolish its dimerization by domain-swapping, which is enhanced by heating. We incubated recombinant SteA, STM and STM AU1 at 75° C. or on ice for 20 minutes, and removed any denatured protein by centrifugation. […] As expected, this dimeric form is completely abolished in both STM and STM AU1 (FIG. 2A).

For data set [3], the target named is T1, SH3 domain of yeast Sho1p (yeast two-hybrid bait, pEG202-Sho1-SH3) (yeast, UniProt P40073 300-367, limits assumed).
T1 construct: domain: SH3 domain; also called Sho1p SH3 domain
T1 sequence (P40073 300-367 limits assumed): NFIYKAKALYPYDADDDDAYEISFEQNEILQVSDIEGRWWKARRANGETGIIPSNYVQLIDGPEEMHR
In words: yeast two-hybrid screen. The text has this:
Degenerate oligonucleotide cassettes were made by annealing and amplifying P20 and P21 encoding a biased library designed around the Pbs2p proline rich sequence ([…]) (SEQ ID NO: 33) that interacts with the SH3 domain of Sho1p. Translation of the cassette gives X(L/V/P/A)N(K/R)PLP(P/S/A)LP(L/V/P/A)X (SEQ ID NO: 34). At the DNA level, this oligonucleotide should give rise to a library with a theoretical complexity of 98,304. The cassette was ligated into STM pJG4-5, and grown up in XL10 Gold cells (Stratagene). The midi-prepped (Qiagen) DNA was used to create a yeast library of 6×10⁴ cells in EGY48, theoretically covering 60% of the sequences encoded by the library. These cells were mated with EGY42 cells carrying pEG202-Sho1-SH3, made as described above. Interactors were selected on -UHTL/X-Gal/Gal-Raff plates for 4 days, picked and the plasmids rescued into E. coli KC8 cells. The plasmids were transformed back into EGY48 to confirm interaction with the SH3 domain of Sho1p in EGY42 using an interaction-mating matrix.

Data set [4] deals with T1, SH3 domain of yeast Sho1p (yeast …). Nature of the data set: yeast two-hybrid interaction mating. The text has this:
The yeast genome encodes 25 proteins that between them comprise 28 SH3 domains. Each domain, or combination of domains, was cloned as a yeast two hybrid bait, and tested by interaction mating for its ability to recognise AptA. […] The SH3 domain of Bud14 is a self-activating bait, giving rise to a blue colour even when mated to an empty prey plasmid. […] AptA* is the mutant version of AptA where the two proline residues of the PxxP motif have been changed to alanines (PP/AA). STM is the empty scaffold.

Data set [5] concerns the molecule itself. Nature of the data set: gel filtration after heating to 75° C. (self-association). Here is the method:
as §1

In data set [6] the target is T2, carboxymethylated papain on agarose beads (Calbiochem) (UniProt P00784 134-345, carboxymethylated).
T2 construct: also called immobilized papain; papain-agarose beads
T2 sequence (looked up): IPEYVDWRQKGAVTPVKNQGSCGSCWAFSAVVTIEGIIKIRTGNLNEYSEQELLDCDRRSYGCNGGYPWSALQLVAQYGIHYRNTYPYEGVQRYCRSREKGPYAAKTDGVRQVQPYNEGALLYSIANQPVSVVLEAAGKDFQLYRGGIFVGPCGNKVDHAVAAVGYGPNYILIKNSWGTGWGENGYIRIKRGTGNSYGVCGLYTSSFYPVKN
In words: papain-agarose pull-down, western blot with anti-SteA. Here is the method:
Agarose beads carrying carboxymethylated papain (Calbiochem) were washed three times in EB (equilibration buffer: 50 mM sodium phosphate pH 6.5, 0.5M NaCl, 0.1% non-detergent sulfobetaines). The beads were blocked with 1 mg/ml BSA in EB for 30 mins at 4° C. and washed three more times in EB. 300 μg of recombinant SteA or STM AU1 in 1×TBS buffer was diluted into EB to produce a total of volume of 500 μL and incubated with the beads with turning end over end for 90 mins at 4° C. The beads were then washed three times in EB and resuspended in 50 μl of sample buffer for analysis by 12% SDS-PAGE gel and western blotting using an anti-steA monoclonal antibody (C5/2, Maryland Biosciences).

B1: wild type Stefin A (human, recombinant) (other)
chain: MIPGGLSEAKPATPEIQEIVDKVKPQLEEKTNETYGKLEAVQYKTQVVAGTNYYIKVRAGDNKYMHLKVFKSLPGQNEDLVLTGYQVDKNKDDELTGF
notes: Expressed in E. coli from pET30a(+) with a hexa-histidine tag; also called SteA; Cystatin A
As to B1, the binding result in data set [1] was “binds”.

B2: STM (Stefin A Triple Mutant), recombinant, no insert (designed binder)
chain: MIPWGLSEAKPATPEIQEIVDKVKPQLEEKTNETYGKLEAVQYKTQVDAGTNYYIKVRAGDNKYMHLKVFNGPPGQNEDLVLTGYQVDKNKDDELTGF
notes: Expressed in E. coli from pET30a(+) with a hexa-histidine tag; also called STM triple mutant
In the case of B2, the binding result in data set [2] is listed as “no binding”.

B3: Apt94 (peptide aptamer 094 in truncated STM) (designed binder)
chain: MIPWGLSEAKPATPEIQEIVDKVKPQLEEKTNETYGKLEAVQYKTQVDAGTNYYIKVRAGDNKYMHLKVFNGPANKPLPALPALGSAVE
notes: Truncated by a frame-shift and an out-of-frame stop codon
In the case of B3, the binding result in data set [3] is on record as “binds”.

B4: AptA* (AptA with the two prolines of the PxxP motif changed to alanines) (designed binder)
chain: MIPWGLSEAKPATPEIQEIVDKVKPQLEEKTNETYGKLEAVQYKTQVDAGTNYYIKVRAGDNKYMHLKVFNGPRLNKPLASLAV
notes: also called AptA PP/AA; AxxA mutation of AptA
Regarding B4, the binding result in data set [4] is on record as “no binding”.

B5: Apt40 (peptide aptamer 040 in truncated STM) (designed binder)
chain: MIPWGLSEAKPATPEIQEIVDKVKPQLEEKTNETYGKLEAVQYKTQVDAGTNYYIKVRAGDNKYMHLKVFNGPVENKPLPALPAVGP
notes: as for B3
In the case of B5, the binding result in data set [3] is reported as “binds”.

B6: STM comprising target peptide AU1 epitope (designed binder)
chain: MIPWGLSEAKPATPEIQEIVDKVKPQLEEKTNETYGKLEAVQYKTQVDAGTNYYIKVRAGDNKYMHLKVFNGPDTYRYIGPPGQNEDLVLTGYQVDKNKDDELTGF
notes: Expressed in E. coli from pET30a(+) with a hexa-histidine tag; also called STM AU1; STM/AU1
Regarding B6, the binding result in data set [5] is listed as “no binding”; in data set [6], “no binding (tested: 300 µg)”.

The values are drawn from patent US20120190819A1 (MEDICAL RESEARCH COUNCIL, published 2012).
